Reference: patent US11814435B2, “Therapeutic antibodies and their uses” (PFIZER INC., priority 2015, dated 2023)
Positions count from the first letter of the chain named.

T1: hBCMA (human BCMA) (Homo sapiens, UniProt Q02223)
T1 sequence (Q02223 1-184): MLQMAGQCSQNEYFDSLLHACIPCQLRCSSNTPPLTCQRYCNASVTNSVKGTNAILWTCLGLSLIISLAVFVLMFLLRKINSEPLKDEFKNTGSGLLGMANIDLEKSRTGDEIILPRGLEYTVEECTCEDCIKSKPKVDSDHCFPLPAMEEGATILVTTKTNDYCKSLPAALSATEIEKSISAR

B1: L3.PY/L1.AH/H2.QL: anti-BCMA antibody (antibody, V domains shown)
VH: EVQLLESGGGLVQPGGSLRLSCAASGFTFGSYAMTWVRQAPGKGLEWVSAISGSGGNTFYADQLKGRFTISRDNSKNTLYLQMNSLRAEDTAVYYCARVSPIASGMDYWGQGTLVTVSS
VL: EIVLTQSPGTLSLSPGERATLSCRASQSVSAHYLAWYQQKPGQAPRLLIYGASSRATGIPDRFSGSGSGTDFTLTISRLEPEDFAVYYCQHYPYPPSFTFGQGTKVEIK
B2: L3.PY/L1.FF/H3.YA: anti-BCMA antibody (antibody, V domains shown)
VH: B1 VH with Q63S, L64V, A103Y, S104A
VL: B1 VL with A31S, H32F, Y33F
B3: L3.PY/L1.FF/H2.YQ: anti-BCMA antibody (antibody, V domains shown)
VH: B1 VH with G53Y, S54Q, Q63S, L64V
VL: B1 VL with A31S, H32F, Y33F
B4: L3.PY/L1.FF/H3.TAQ: anti-BCMA antibody (antibody, V domains shown)
VH: B1 VH with Q63S, L64V, A97T, S104A, G105Q
VL: B1 VL with A31S, H32F, Y33F
B5: L3.PY/L1.PH/H2.QR: anti-BCMA antibody (antibody, V domains shown)
VH: B1 VH with L64R
VL: B1 VL with A31P
B6: L3.PY/L1.PH/H3.TAQ: anti-BCMA antibody (antibody, V domains shown)
VH: B1 VH with Q63S, L64V, A97T, S104A, G105Q
VL: B1 VL with A31P
B7: L3.PY/L1.AH/H3.TAQ: anti-BCMA antibody (antibody, V domains shown)
VH: B1 VH with Q63S, L64V, A97T, S104A, G105Q
VL: B1 VL
B8: L3.PY/L1.FF/H2.LT: anti-BCMA antibody (antibody, V domains shown)
VH: B1 VH with G53L, S54T, Q63S, L64V
VL: B1 VL with A31S, H32F, Y33F
B9: L3.PY/L1.AH/H3.YA: anti-BCMA antibody (antibody, V domains shown)
VH: B1 VH with Q63S, L64V, A103Y, S104A
VL: B1 VL
B10: L3.PY/L1.FF/H2.QL: anti-BCMA antibody (antibody, V domains shown)
VH: B1 VH
VL: B1 VL with A31S, H32F, Y33F
B11: L3.PY/L1.AH/H3.AE: anti-BCMA antibody (antibody, V domains shown)
VH: B1 VH with Q63S, L64V, S104A, G105E
VL: B1 VL
B12: L3.PY/L1.FF/H2.HA: anti-BCMA antibody (antibody, V domains shown)
VH: B1 VH with G53H, S54A, Q63S, L64V
VL: B1 VL with A31S, H32F, Y33F
B13: L3.PY/L1.FF/H3.AE: anti-BCMA antibody (antibody, V domains shown)
VH: B1 VH with Q63S, L64V, S104A, G105E
VL: B1 VL with A31S, H32F, Y33F
B14: L3.PY/L1.FF/H2.DY: anti-BCMA antibody (antibody, V domains shown)
VH: B1 VH with S52D, G53Y, Q63S, L64V
VL: B1 VL with A31S, H32F, Y33F
B15: L3.PY/L1.PH/H3.AE: anti-BCMA antibody (antibody, V domains shown)
VH: B1 VH with Q63S, L64V, S104A, G105E
VL: B1 VL with A31P
B16: L3.PY/L1.PH/H2.HA: anti-BCMA antibody (antibody, V domains shown)
VH: B1 VH with G53H, S54A, Q63S, L64V
VL: B1 VL with A31P
B17: L3.PY/L1.FF/H2.QR: anti-BCMA antibody (antibody, V domains shown)
VH: B1 VH with L64R
VL: B1 VL with A31S, H32F, Y33F

biological target: T1, hBCMA (human BCMA); assay: Kinetics and affinity of hBCMA/human IgG interactions by SPR (Bio-Rad Proteon XPR36); format: binding; settings: huBCMA, 37° C.
Procedure: All experiments were performed on a Bio-Rad Proteon XPR36 surface Plasmon resonance biosensor (Bio-Rad, Hercules, Calif.). An array of anti-BCMA antibodies was prepared using an amine-coupling method on a Bio-Rad GLC Sensor Chip similar to that described in Abdiche, et al., Anal. Biochem. 411, 139-151 (2011). The analysis temperature for the immobilization was 25° C. and the running buffer was HBS-T+(10 mM HEPES, 150 mM NaCl, 0.05% Tween-20, pH 7.4). Channels were activated in the analyte (horizontal) direction by injecting a mixture of 1 mM ECD and 0.25 mM NHS for 3 minutes at a flow rate of 30 μL/min. IgGs were immobilized on the activated spots by injecting them in the ligand (vertical) direction at 20 μg/mL in 10 mM Acetate pH 4.5 buffer for 1.5 minutes at […]. The activated surfaces were blocked by injecting 1M ethanolamine, pH 8.5 in the analyte direction for 3 minutes at 30 μL/min.
The analysis temperature for the hBCMA binding analysis was 37° C. or 25° C. in a running buffer of HBS-T+, supplemented with 1 mg/mL BSA. A kinetic titration method was employed for the interaction analysis as described in Abdiche, et al. The hBCMA (human BCMA) analyte was injected in the analyte direction using a series of injections from low to high concentration. The concentrations used were 0.08 nM, 0.4 nM, 2 nM, 10 nM and 50 nM (a 5-membered series, with a 5-fold dilution factor and top concentration of 50 nM). The association time for a given analyte dilution was two minutes. Immediately after the 50 nM hBCMA injection, dissociation was monitored for 2 hours. Prior to the hBCMA analyte injections, buffer was injected 5 times using the same association and dissociation times at the hBCMA analyte cycles to prepare a buffer blank sensorgram for double-referencing purposes (double referencing as described in Myszka, J. Mol. Recognit. 12, 279-284 (1999).
The sensorgrams were double-referenced and fit to a 1:1 Langmuir with mass transport kinetic titration model in BIAevaluation Software version 4.1.1 (GE Lifesciences, Piscataway, N.J.). The sensorgrams and fits are shown in FIG. 1, and the kinetics and affinity parameters for various anti-BCMA antibodies of the present invention are shown in Tables 6A-6C.

| Molecule | ka (1/Ms) huBCMA @ 37° C. [M⁻¹ s⁻¹] | kd (1/s) huBCMA @37° C. [s⁻¹] |
| --- | --- | --- |
| B1 | 3.04e+06 | 0.0016 |
| B2 | 3.5e+06 | 0.0018 |
| B3 | 3.32e+06 | 0.00152 |
| B4 | 3.52e+06 | 0.00189 |
| B5 | 3.69e+06 | 0.00236 |
| B6 | 3.58e+06 | 0.00213 |
| B7 | 3.27e+06 | 0.00119 |
| B8 | 3.3e+06 | 0.00167 |
| B9 | 3e+06 | 0.0015 |
| B10 | 3.48e+06 | 0.0014 |
| B11 | 3.32e+06 | 0.00173 |
| B12 | 3.49e+06 | 0.00219 |
| B13 | 3.82e+06 | 0.00263 |
| B14 | 4.14e+06 | 0.00271 |
| B15 | 3.68e+06 | 0.00134 |
| B16 | 2.37e+06 | 0.00116 |
| B17 | 3.47e+06 | 0.00177 |

system: cyBCMA; assay: Kinetics and affinity of cyBCMA/human IgG interactions by SPR (Bio-Rad Proteon XPR36); format: binding, cynomolgus; settings: 37° C.

| Molecule | ka (1/Ms) cyBCMA @ 37° C. [M⁻¹ s⁻¹] | kd (1/s) cyBCMA @37° C. [s⁻¹] |
| --- | --- | --- |
| B1 | 2.62e+06 | 0.00955 |
| B2 | 2.46e+06 | 0.00416 |
| B3 | 2.19e+06 | 0.00326 |
| B4 | 2.32e+06 | 0.00376 |
| B5 | 2.42e+06 | 0.00436 |
| B6 | 2.51e+06 | 0.0032 |
| B7 | 2.28e+06 | 0.00302 |
| B8 | 2.19e+06 | 0.00341 |
| B9 | 2.37e+06 | 0.00526 |
| B10 | 2.36e+06 | 0.00449 |
| B11 | 2.25e+06 | 0.00356 |
| B12 | 2.33e+06 | 0.00417 |
| B13 | 2.85e+06 | 0.00501 |
| B14 | 2.66e+06 | 0.005 |
| B15 | 2.61e+06 | 0.00202 |
| B16 | 1.61e+06 | 0.00553 |
| B17 | 2.55e+06 | 0.00421 |
